Assay [1] concerns HUVEC microfilaments. Nature of the assay: Fluorescent staining of formalin fixed endothelial cells with Alexa 488-labeled rhEndostatin. It counts as cell-based, human. Conditions: 50-fold molar excess (100 μM) of peptide; 40 μg/ml (2 μM) Alexa-rhEndostatin. The method, then: (A), HUVECs, (B), HAECs and (C), HMVECs were incubated in the presence of 40 micrograms per milliliter (μg/ml) Alexa 488-labeled rhEndostatin and photographed at 100× magnification under Alexa 488 (green) excitation wavelength. (D) and (E), HUVECs were incubated simultaneously in anti-tropomyosin TM311 ascites fluid and 40 micrograms per milliliter (μg/ml) Alexa 488-labeled rhEndostatin followed by incubation in Alexa 594 conjugated goat anti-mouse IgG (H+L). The same field was photographed under Alexa 488 (green) and Alexa 594 (red) excitation wavelengths at 100× magnification.
HUVECs were incubated in the presence of 40 micrograms per milliliter (μg/ml) Alexa 488-labeled rhEndostatin alone (A), or in the presence of a 50-fold molar excess of control peptide (B), or E37 peptide (C). Cells were photographed using the same exposure times at 100x magnification under Alexa 488 (green) excitation wavelength.
To detect the binding of Alexa-labeled rhEndostatin 1×10^4 HUVEC, HMVEC and HAECs were plated on 1.5% gelatin coated Nalge Nunc Lab Tek II chamber slides (Naperville, Ill.) and fixed in 10% neutral buffered formalin followed by a methanol wash. The chamber slides were incubated in PBS/1% calf serum containing 40 μg/ml (2 μM) of Alexa 488-labeled rhEndostatin (Narum et al., manuscript in preparation) for 1 hr at room temperature. The slides were washed in PBS, coverslips mounted using fluorescent mounting media (Kirkegaard and Perry Laboratories, Gaithersburg, Md.) and cells photographed under Alexa 488 excitation wavelength. Co-localization studies were performed as above except cells were incubated in PBS/1% calf serum containing 1:200 mouse anti-tropomyosin TM311 (Sigma, St. Louis, Miss.) and 40 μg/ml of Alexa 488-labeled rhEndostatin followed by incubation with goat anti-mouse IgG (H+L) conjugated to Alexa 594 (Molecular Probes, Eugene, Oregon). The same fields were photographed under Alexa 488 and Alexa 594 wavelengths. […]

The test system of assay [2] is B16-BL6 melanoma cells. In words: B16-BL6 experimental metastasis assay. It counts as in vivo, C57BL/6J mice. Conditions: co-injection of 1.5 nmol rhEndostatin and up to 375 nmol control peptide; p>0.11. The protocol:
C57BL/6J mice were injected via the tail vein with 5×10^4 B16-BL6 melanoma cells on day 0. On day 3, groups of five mice received daily subcutaneous doses of either buffer control, 1.5 nmol (1.5 mg/kg/day) of rhEndostatin in combination with 0, 15, 75 or 375 nmol of control or E37 peptide, or control or E37 peptide alone for eleven days. All mice were sacrificed on day 14, and the number of pulmonary surface metastases in each animal counted. Error bars indicate standard deviation of the mean.
C57BL/6J mice (n=8) were injected intravenously (i.v.) with 5×10^4 B16-BL6 cells/mouse. Three days later treatment commenced. 100 μl of citrate-phosphate buffer (66 mM Sodium Phosphate, 17 mM Citric acid, 59 mM NaCl pH 6.2) containing 1.5 nmol of rhEndostatin and 100 μl of PBS containing either 0, 15, 75 or 375 nmol of control or E37 peptide were mixed and injected subcutaneously (s.c.) daily for 11 days. All mice were then sacrificed, their lungs removed and the number of surface metastases counted. Results were analyzed for statistical significance using the 2-tailed Student's t-test.
The following experiment was conducted to determine the interaction of E37 peptide and Endostatin protein. Briefly, the B16BL6 experimental metastasis assay, as known to those of skill in the art and further described in International Patent Application number PCT/US99/11418, was performed as follows. 5×10^4 B16-BL6 cells in 200 μl of PBS were injected into C57BL/6J mice via the tail vein. Three days post injection treatment was started. The injection received by eight groups of mice were: 1) citrate phosphate/PBS buffer, 2) ^30 μg Endostatin protein (in 100 μl PBS), 3) 30 μg Endostatin protein (in 200 μl PBS), 4) 30 μg Endostatin protein plus 50 times molar excess of control peptide (in 200 μl PBS), 5) 30 μg Endostatin protein plus 250 times molar excess of control peptide (in 200 μl PBS), 6) 30 μg Endostatin protein plus 10 times molar excess of E37 peptide (in 200 μl PBS), 7) 30 μg Endostatin protein plus 50 times molar excess of E37 peptide (in 200 μl PBS), and 8) 30 μg Endostatin protein plus 250 times molar excess of E37 peptide (in 200 μl PBS). Doses were administered daily for eleven days posterior to the thoracic cavity subcutaneously. All mice were sacrificed, the lungs removed and the number of surface metastases in each animal were counted under a stereo microscope.

The target of assay [3] is T1, rhEndostatin (Homo sapiens, UniProt P39060).
T1 construct: rhEndostatin were produced in P. pastoris and purified to homogeneity; made in house; host or cells: Pichia pastoris
T1 sequence (P39060 1572-1754 limits assumed): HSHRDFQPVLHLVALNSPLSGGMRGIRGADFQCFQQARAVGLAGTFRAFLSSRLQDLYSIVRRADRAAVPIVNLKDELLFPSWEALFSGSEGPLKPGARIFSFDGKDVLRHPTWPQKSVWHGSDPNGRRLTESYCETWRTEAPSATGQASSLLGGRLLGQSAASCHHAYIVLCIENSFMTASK
In words: ELISA of tropomyosin binding to rhEndostatin coated wells. Conditions: wells coated with 5 μg/ml rhEndostatin or BSA, detection with TM311 anti-tropomyosin. The protocol: FIG. 13 provides a graph showing that rhTM3 binds rhEndostatin in vitro. The wells of a 96-well plate were coated with either 5 micrograms/milliliter (μg/ml) of rhEndostatin (closed symbols) or BSA (open symbols) and incubated with increasing amounts of control E. coli lysate (circles) or tropomyosin expressing λ21-1 bacterial lysate (squares). The amount of tropomyosin binding to each well was determined spectrophotometrically following the addition of the TM311 anti-tropomyosin ascites fluid, alkaline phosphatase conjugated anti-mouse IgG and substrate. Error bars indicate standard deviation of the mean.
Plates were coated with 5 μg/ml of BSA or rhEndostatin and blocked. Dilutions of λ21-1 or control lysate were added and incubated for 1 hour at 37° C., followed by incubation with 1:500 diluted anti-tropomyosin TM311 ascites fluid (Sigma, St. Louis, Miss.). Following incubation in 1:5000 diluted anti-mouse IgG (H+L) conjugated to alkaline phosphatase (Promega, Madison, Wis.) wells were developed using Blue Phos Phosphatase Substrate (Kirkegaard and Perry, Gaithersburg, Md.) and the OD635 measured.
In this experiment the wells of a 96 well plate were either coated with 5 μg/ml of Endostatin protein or BSA protein. […] The wells were washed and incubated with anti-tropomyosin antibodies followed by anti-mouse IgG AP conjugated antibodies and developed using KPL Blue Phos microwell phosphatase solution. The OD635 was measured after a one hour incubation at room temperature and the results plotted in FIG. 8.
Recombinant human Endostatin protein and hTM3 were also shown to interact in a capture ELISA (FIG. 8).

Assay [4] deals with T2, rhTM3 (human tropomyosin isoform 3) (Homo sapiens, UniProt P09493).
T2 construct: made in house; host or cells: E. coli BL21 (DE3), pET-21a(+)
T2 sequence (P09493 1-284 isoform P09493-3): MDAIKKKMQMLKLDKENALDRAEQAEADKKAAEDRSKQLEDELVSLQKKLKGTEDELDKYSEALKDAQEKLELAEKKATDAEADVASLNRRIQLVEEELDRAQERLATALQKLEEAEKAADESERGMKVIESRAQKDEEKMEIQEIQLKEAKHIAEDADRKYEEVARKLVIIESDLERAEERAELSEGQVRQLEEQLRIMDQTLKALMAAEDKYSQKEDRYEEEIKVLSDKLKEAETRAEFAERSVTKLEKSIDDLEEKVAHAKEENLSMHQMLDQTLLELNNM
Nature of the assay: Surface plasmon resonance (BIAcore) binding to immobilized rhTM3. The protocol: (A), 0, 10, 20, 40, 80 and 160 micromolar (μM) of rhEndostatin were injected at 5 microliters per minute (μl/minute) for 960 seconds through a biosensor flow cell that had been activated and blocked as a control for bulk refractive index and subsequently through a flow cell to which 3200 response units (RU) of rhTM3 had been immobilized. The binding kinetics were recorded and the differences between the two curves plotted for each rhEndostatin concentration. (B), 0, 11.5, 23 and 46 micromolar (μM) of rhAngiostatin were injected at 5 microliters per minute (μl/minute) for 900 seconds over a flow cell containing 3200 RU of rhTM3 as above. Samples were run in duplicate, the data corrected for bulk shift and the average of the 2 curves plotted. (C), Injection of 5 micromolar (μM) of rhEndostatin at 5 microliters per minute (μl/minute) for 240 seconds in the presence of 0, 6, 15, 30 and 45 micromolar (μM) of soluble rhTM3 over a flow cell containing 2000 RU of rhTM3. Samples were run in duplicate, the reference cell values subtracted and the average of each of the 2 curves plotted. The spikes in RU seen at the beginning and end of each injection are due to lag in flow caused by the rhTM3 and reference cells being non-adjacent.
Interactions between purified soluble rhEndostatin and rhTM3 were evaluated by surface plasmon resonance using the BIAcore 3000 (BiaCore, Piscataway, N.J.). The purified rhTM3 was immobilized on the flow cell of a CM-5 BIAcore biosensor chip. The running buffer was 0.01 M HEPES, pH 7.4, 0.15M NaCl and 0.005% polysorbate 20 (v/v). The competition experiments involving soluble rhTM3 were performed using PBS pH 7.4 as running buffer. All measurements were performed at 25° C. To correct for differences in bulk refraction all protein preparations were passed over an activated and blocked flow cell to which no protein had been coupled. Effects due to bulk shift were subtracted from experimental data.
Surface plasmon resonance performed using the BIAcore 3000 (BiaCore, Piscataway, N.J.) was used to assess the kinetics of rhEndostatin/rhTM3 binding. […]

Assay [5] addresses recombinant human Endostatin protein (human). Nature of the assay: cell-based or functional assay.

Entries after “also recorded” stand apart in the source; their conditions may differ. Bridges are numbered along the chain shown (N, C = ends). Where no end group is shown, it is not given here.

Consider “CSNSDKPKCGGGS (disulfide 1-9 (inferred)) [control peptide, reference compound]”, for which, in assay [1], the “inhibition of binding of Alexa-labeled rhEndostatin to HUVEC microfilaments” value was “not”. Further, the “incidence of metastatic lesions on the lungs versus 1.5 nmol rhEndostatin alone” value in assay [2] is listed as “statically indistinguishable”.
Consider “rhTM3: recombinant human tropomyosin isoform 3 (fibroblast tropomyosin), SEQ ID NO:119; also as λ21-1 bacterial lysate (EKVAHAKEENLSMHQMLDQTLLELNNM)”, for which the “binding of tropomyosin to rhEndostatin” value in assay [3] is listed as “binds”; in assay [3] (listed as hTM3) it was “higher immunoreactivity in rhEndostatin coated wells than in wells coated with BSA; also recorded: binds”; in assay [3] (listed as tropomyosin), “considerably more tropomyosin bound”. The “competition for binding of rhEndostatin to immobilized rhTM3” value in assay [4] (5 μM rhEndostatin with 0-45 μM soluble rhTM3, 2000 RU immobilized rhTM3) was “competed for the binding of rhEndostatin”.

B1: E37 peptide (synthetic, cyclized) (peptide)
chain: CTHWWHKRCGGGS
modifications: disulfide 1-9
For B1, in assay [5], the decrease in the anti-tumor activity of rhEndostatin (B16-BL6 lung metastases), 1.5 nmol rhEndostatin co-injected with 15 nmol E37 peptide was 11 percent; the decrease in the anti-tumor activity of rhEndostatin (B16-BL6 lung metastases), 1.5 nmol rhEndostatin co-injected with 75 nmol E37 peptide is 30.5 percent; the decrease in the anti-tumor activity of rhEndostatin (B16-BL6 lung metastases), 1.5 nmol rhEndostatin co-injected with 375 nmol E37 peptide came to 84.5 percent; the inhibition of lung metastasis, 1.5 nmol rhEndostatin co-administered with a 250-fold molar excess of E37 peptide was 11%. Moreover, in assay [5], the inhibition of the formation of lung metastasis (B16BL6), 30 µg Endostatin protein plus 10 fold molar excess of E37 peptide is 76%; the inhibition of the formation of lung metastasis (B16BL6), 30 µg Endostatin protein plus 50 fold molar excess of E37 peptide stood at 61%; the inhibition of the formation of lung metastasis (B16BL6), 30 µg Endostatin protein plus 250 fold molar excess of E37 peptide is 21%.

B2: rhAngiostatin K1-3: recombinant human Angiostatin kringles 1-3 produced in P. pastoris, used as negative control (protein)
chain: VYLSECKTGNGKNYRGTMSKTKNGITCQKWSSTSPHRPRFSPATHPSEGLEENYCRNPDNDPQGPWCYTTDPEKRYDYCDILECEEECMHCSGENYDGKISKTMSGLECQAWDSQSPHAHGYIPSKFPNKNLKKNYCRNPDRELRPWCFTTDPNKRWELCDIPRCTTPPPSSGPTYQCLKGTGENYRGNVAVTVSGHTCQHWSAQTPHTHNRTPENFPCKNLDENYCRNPDGKRAPWCHTTNSQVRWEYCKIPSCDSSPV
As to B2, the “specific binding to immobilized rhTM3” value in assay [4] (negative control, similar concentrations (0-46 μM) passed over the rhTM3 chip) is reported as “no evidence of specific binding”.

The values are drawn from patent US20020077289A1, “Angiostatin and endostatin binding proteins and methods of use” (priority 2000, published 2002).
